According to article PMC3942423 (Nature chemical biology, 2009):
Each block holds one molecule with its values, some of them ahead of it.

Columns and labels:
GH92 enzymes = test: EDTA inactivation and metal reactivation; type: biochemical, Bacteroides thetaiotaomicron; conditions: all the GH92 enzymes analyzed
Bt3990 = biological target: T1, Bt3990 (Bacteroides thetaiotaomicron, UniProt Q8A0N1); test: inhibition studies; type: biochemical
T1 sequence (Q8A0N1 20-755): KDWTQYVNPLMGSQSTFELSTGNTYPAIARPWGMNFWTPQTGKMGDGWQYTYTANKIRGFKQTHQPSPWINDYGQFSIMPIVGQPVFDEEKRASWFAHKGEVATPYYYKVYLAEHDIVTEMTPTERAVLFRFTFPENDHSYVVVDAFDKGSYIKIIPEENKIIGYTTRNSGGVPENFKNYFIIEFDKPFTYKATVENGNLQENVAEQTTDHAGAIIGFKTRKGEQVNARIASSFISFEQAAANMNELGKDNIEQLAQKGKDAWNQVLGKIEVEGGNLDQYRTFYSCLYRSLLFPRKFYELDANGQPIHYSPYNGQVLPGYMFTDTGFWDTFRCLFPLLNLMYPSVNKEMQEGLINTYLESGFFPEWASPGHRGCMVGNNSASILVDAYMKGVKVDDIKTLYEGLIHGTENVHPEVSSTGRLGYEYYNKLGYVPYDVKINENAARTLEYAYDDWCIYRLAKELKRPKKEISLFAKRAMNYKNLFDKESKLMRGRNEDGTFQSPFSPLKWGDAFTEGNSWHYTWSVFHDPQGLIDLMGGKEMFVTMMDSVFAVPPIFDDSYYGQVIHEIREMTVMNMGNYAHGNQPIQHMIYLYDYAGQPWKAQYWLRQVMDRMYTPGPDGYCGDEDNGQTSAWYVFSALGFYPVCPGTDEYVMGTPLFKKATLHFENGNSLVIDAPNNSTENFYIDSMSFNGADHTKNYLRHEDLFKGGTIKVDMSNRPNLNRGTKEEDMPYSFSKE

Bt3990 E533A variant = test: kinetics of enzyme variant on DNP-Man; type: biochemical, Bacteroides thetaiotaomicron; conditions: E533A variant of Bt3990, activated aryl mannoside
Bt3990 E585A = Bt3990 E585A (Bacteroides thetaiotaomicron, UniProt Q8A0N1, E585A); test: kinetics of enzyme variant; type: biochemical; conditions: E585A of Bt3990, activated substrate
[1] = substrate: O=[N+]([O-])c1ccc(O[C@H]2O[C@H](CO)[C@@H](O)[C@H](O)[C@@H]2O)cc1; test: 4NP-Man hydrolysis kinetics; type: biochemical, Bacteroides thetaiotaomicron; conditions: other: substrate 4NP-Man
[2] = substrate: OC[C@H]1O[C@H](O[C@@H]2[C@H](O)[C@@H](O)O[C@H](CO)[C@H]2O)[C@@H](O)[C@@H](O)[C@@H]1O; test: purified protein, by the assay type; conditions: other: most active mannobiose substrate; enzyme Bt1878; pH 7.0; 37.0 °C
[3] = substrate: OC[C@H]1O[C@H](O[C@H]2[C@H](O)[C@H](O)[C@@H](O)O[C@@H]2CO)[C@@H](O)[C@@H](O)[C@@H]1O; test: mannobiose hydrolysis kinetics; type: biochemical, Bacteroides thetaiotaomicron; conditions: other: most active mannobiose substrate

- recovery of activity after EDTA (GH92 enzymes): fully recovered
Molecule: [Ca+2] [calcium]

Molecule: OC[C@@H]1[C@@H](O)[C@H](O)[C@H](O)c2nccn21 [mannoimidazole]
- Ki (Bt3990): 140 µM

- effect on enzyme activity (GH92 enzymes): inactivated
Molecule: O=C(O)CN(CCN(CC(=O)O)CC(=O)O)CC(=O)O [EDTA]

Molecule: O=[N+]([O-])c1ccc(O[C@H]2O[C@H](CO)[C@@H](O)[C@H](O)[C@@H]2O)c([N+](=O)[O-])c1 [DNP-Man]
- kcat/Km relative to the wild-type enzyme (Bt3990 E533A variant): 370%
- change of kcat/Km (Bt3990 E585A): increased

B1: Bt1878 (Bacteroides thetaiotaomicron VPI-5482) (protein)
chain: ETKDYTQYVNTFIGAADNGHTFPGACYPFGMIQTSPVTGAVGWRYCSEYTYQDSLIWGFTQTHLNGTGCMDLGDILVMPVTGTRARAWDAYRSHFPKDKEAATPGYYTVELSDPQVKAELTASIHAALHRYTYHKADSASLLIDLQHGPAWREEQYHSQVNSCEVNWEDAQTLAGHVNNTVWVDQDYFFVMKFNRPVIDSLYLPMGETEKGKRIIATFDLKPGDELMMKVALSTTSVEGAKKNLQAEIPDWNFDGVKLAAHDEWNSYLSRMDVEGTDDEKTNFYTCFYHALIQPNQISDVDGMYRNAADSIVKAGTGTFYSTFSLWDTYRAAHPFYTLMVPERVDDFVNSLIEQGEVQGFLPIWALWGKENFCMIGNHGVSVIAEAYRKGFRGFDAERAFNMVKKTQTVSHPLKSDWEVYTKYGYFPTDLTKAESVSSTLESVYDDYAAADMARRMGKEEDAAYFAKRADYYKNLFDSQTNFMRPRKADGTWKSPFNPSDVGHAESTGGDYTEGNAWQYTWHVQHDVPGLIALFGGEEPFLNKLDSLFTVKLETTQADVTGLIGQYAHGNEPSHHVTYLYALAGRPERTQELIREIFDTQYKNKPDGLCGNDDCGQMSAWYMFSAMGFYPVDPVSGDYVFGAPQLPKIVLHLADGKTFTVIAENLSKEHKYVDSITLNGEPYTKNTISHEDILKGGTLVYKMK
- Km ([1]; enzyme Bt1878, pH 7.0): 900 ± 130 µM
- kcat ([1]; enzyme Bt1878, pH 7.0): 0.00133 ± 8.33e-05 s⁻¹
- kcat/Km ([1]; enzyme Bt1878, pH 7.0): 1.48 M⁻¹ s⁻¹
- Km [2]: 2000 ± 380 µM
- kcat [2]: 0.283 s⁻¹
- kcat/Km [2]: 140 M⁻¹ s⁻¹

B2: Bt3530 (Bacteroides thetaiotaomicron VPI-5482) (protein)
chain: MTPSVAQNTKYVNLFIGTSGDNGQVAPGAAAPFGMVCVCPDNDPRSHAGYDYAVTKVSGISVNRLSGVGCSGGGGNLRIRPVAPSQELHIKKSREKATPGYYSTAFTNGIKTELTATNAMAVERYKFPRSLSAALWIDFASTFEDVATCHYKRISETCIEGYVQAKNVCGHGCYKLYFSLNTSQPFQLEEQKETTACLTFGKKVRSVEVRIGLSALSSELASWECARWEKMDFEDVKSRTADQWEKQLSAIDVKGGKKDDRVIFYTSLYRTYLSPADVSSPDGAYLGTDGKVYISEDFRYYSNWSLWDTFRTKFPLLVLTEPAKMRDMATSLIHLYATGKKDWSTGFESTPTVRTEHAVILLLDAYRKGITNLDFRKGYAGMKQEMERLPMRSPDQKMESAYDLWAMAKIAEIIGEKADSEQYRQRSVSLFEETWKKEFMNVTPAFEVMKNNGLYQGTRWQYRWAAPQYIDKMIEWVGQDSLRLQLTYFFDHHLYNQGNEPDIHVPYLFNRLGAPEKTQQIVRSLMTEPMIHKYGGNSEFKTPYLGKAFKNAPEGYSPEMDEDDGTMSAWYVFGAMGFYPLLVGDEYYDLTSPLFDRVLLRLTNGNVLTIQTEGRKKKDAPIKSIHFNGKKIADYRISHNELIKGGELIYNYK
- kcat ([3]; enzyme Bt3530, pH 7.0): 0.001 ± 8.33e-05 s⁻¹
- kcat/Km ([3]; enzyme Bt3530, pH 7.0): 1.58 M⁻¹ s⁻¹

B3: Bt3965 (Bacteroides thetaiotaomicron VPI-5482) (protein)
chain: MAQTEKLTDYVNPFVGTDGYGNVYPGAQIPFGGIQISPDTDSRFYDAASGYKYNHLTLMGFSLTHLSGTGIPDLGDFLFIPGTGEMKLEPGTHEDPDQGYRSRYSHDKEWASPNYYAVELADYGVKAEMTSGVRSGMFRFTYPESDNAFIMIDMNHTLWQSCEWSNLRMINDSTITGYKLVKGWGPERHVYFTATFSKKLTGLRFVQDKKPVIYNTSRFRSSYEAWGKNLMACISFDTKAGEEVTVKTAISAVSTDGARNNMKELDGLTFNELRAKGEALWEKELGKYTLTADRKTKETFYTSAYHAALHPFIFQDSDGQFRGLDKNIEKAEGFTNYTVFSLWDTYRALHPWFNLVQQEVNADIANSMLAHYDKSVEKMLPIWSFYGNETWCMIGYHAVSVLADMIVKEVKGFDYERAYEAMKTTAMNSNYDCLPEYREMGYVPFDKEAESVSKTLEYAYDDYCIAQAAKKLGKEDDYHYFLNRALSYQTLIDPETKYMRGRDSKGDWRTPFTPVAYQGPGSVHGWGDITEGFTMQYTWYVPQDVQGYINEAGKELFRKRLDELFTVELPDDIPGAHDIQGRIGAYWHGNEPCHHVAYLYNYLKEPWKCQKWIRTIVDRFYGNTPDALSGNDDCGQMSAWYMFNCIGFYPVAPSSNIYNIGSPCAEAITVRMSNGKNIEMTADNWSPKNLYVKELYVNGKKYDKSYLTYDDIRDGVKLRFVMSGKPNYKRAVSDEAVPPSISLPEKTMKYKSSIGF
- kcat ([1]; enzyme Bt3965, pH 7.0): 0.233 ± 0.00667 s⁻¹
- kcat/Km ([1]; enzyme Bt3965, pH 7.0): 233 M⁻¹ s⁻¹
- kcat ([3]; enzyme Bt3965, pH 7.0): 1.48 ± 0.113 s⁻¹
- kcat/Km ([3]; enzyme Bt3965, pH 7.0): 183 M⁻¹ s⁻¹

B4: Bt4073 (Bacteroides thetaiotaomicron VPI-5482) (protein)
chain: GVVTEDLIPTDYVNPFIGASTSVGAAGVYHGLGKTFPGATTPYGMVQVSPNTITGGDNSSGYSDEHKTIEGFAFTQMSGVGWFGDLGNFLVMPTTGELQKIAGKEDGSIKGYRSSYDKATETAKAGYYSVELTDYKIKVESSATPHCGILQFTFPSNEQSRIQIDLARRVGGTSTSQYVKVLDDYTIQGWMKCTPDGGGWGNGEGNSDYTVYYYAQFSKPLSNYGFWSADIPDEWVRKRDEVVSIPYLTRISQAPVIKDKKELEGKHLGFFTEFPTKEGEQVEMKVGISFVDMEGAANNFKQEIASKNFAQVKQEASDLWNKELSRIRISGGTDDEKTVFYTSLYHTMIDPRIYTDVDGRYIGGDKKVHEQDGTFTKRTIFSGWDVFRSQFPLQAMINPRLVSDALNSLITMADQSRREYYERWELLNSYSGCMIGNPALSVLADAYMKGIRTYDVEKAYQYAVNTSAKFGNDSLGYTPEPLSISYTLEYAYADWCVAQLAKALGKEEDAKRFYEKGQAYRNMFDAEKGWFRPRNADGSWKAWPENALTEEWYGCIESNAYQQGWFVPHDVPGMVELMGGKEEVIANLTNLFDHTPSDMLWNDYYNHANEPVHFVPFLFNQLDVPWYTQKWTRYICKNAYANKVEGIVGNEDVGQMSAWYILAASGIHPSCPGNTRMEITSPVFDKVEFNLDSKYHQGKVFTIIAHNNNTNNLYIQKALLNGKEYNKCYLDFAEIAAGGTLELFMGDKPNTEWGVLSNI
- Km ([1]; enzyme Bt4073, pH 7.0): 1800 ± 210 µM
- kcat ([1]; enzyme Bt4073, pH 7.0): 0.0045 ± 0.000233 s⁻¹
- kcat/Km ([1]; enzyme Bt4073, pH 7.0): 2.33 M⁻¹ s⁻¹
- Km ([3]; enzyme Bt4073, pH 7.0): 270 ± 49 µM
- kcat ([3]; enzyme Bt4073, pH 7.0): 183 ± 9.33 s⁻¹
- kcat/Km ([3]; enzyme Bt4073, pH 7.0): 683000 M⁻¹ s⁻¹

B5: Bt4093 (Bacteroides thetaiotaomicron VPI-5482) (protein)
chain: GDYVHQVNTLIGTKGTGLTSGYLYPGATYPYGMVQFTPSYFSKRSGFVINQLSGGGCEHMGNFPTFPVKGKLKMSPDNILNYRINVSEEKGHAGYYEAMVQEDIKAKLTVTERTGMASYEYPADQQYGTIIIGGGISATPIEQAAIVITAPNKCEGYAEGGNFCGLRTPYKVYFVAEFDTDAFETGTWKREELMPNTTFAEGEYSGVYFTFDVNKKKNIQYKIGVSYVSVENARENLKAENAEWDFQKIQNQAEAKWNHYLGMIEVEGTNPDRTTQFYTHLYRSFIHPNVCSDVNGEYMGADFRVHKSRSKHYTSFSNWDTYRTQIQLLSMLDPEVASDIVISHQLFAEQSGGSFPRWVMANIETGVMQGDPTPILIANAYAFGARNYDPKPIFKIMRKGAEEPGSKSQDVETRPGLKQYLDKGYYNASIQLEYTSADFAIGQFALHAVGDEFASWRYFHFARSWKNLYNSDTGWLQSRNPDGSWKSLGEDFRESTYKNYFWMVPYDIAGLVEIIGGKEKAEKRLDEFFTRLDAGYNDAWFASGNEPSFHIPWIYNWIGRPYKTQEIINRVLNEQYSSKIDGLPGNDDLGTMGAWYVFACIGLYPEIPGVGGFTVNTPIFSSVKVHLKKGDIVIKGGSEKDIYIKSMKLNGKSYESTWIDWDQLNSGATIEYRTSGKPDMKWGAKVVPPSFP
- Km ([1]; enzyme Bt4093, pH 7.0): 1300 ± 190 µM
- kcat ([1]; enzyme Bt4093, pH 7.0): 0.0112 ± 0.000817 s⁻¹
- kcat/Km ([1]; enzyme Bt4093, pH 7.0): 9.08 M⁻¹ s⁻¹
- Km ([3]; enzyme Bt4093, pH 7.0): 35000 ± 2400 µM
- kcat ([3]; enzyme Bt4093, pH 7.0): 1.33 ± 0.065 s⁻¹
- kcat/Km ([3]; enzyme Bt4093, pH 7.0): 38.3 M⁻¹ s⁻¹
